In article PMC3933655, “An Improved Single Cell Ultrahigh Throughput Screening Method Based on In Vitro Compartmentalization” (PLoS ONE, 2014):
Changes are numbered by the printed parent chain. Names may count otherwise.

B1: AFEST (Archaeoglobus fulgidus DSM 4304) (protein)
chain: MLDMPIDPVYYQLAEYFDSLPKFDQFSSAREYREAINRIYEERNRQLSQHERVERVEDRTIKGRNGDIRVRVYQQKPDSPVLVYYHGGGFVICSIESHDALCRRIARLSNSTVVSVDYRLAPEHKFPAAVYDCYDATKWVAENAEELRIDPSKIFVGGDSAGGNLAAAVSIMARDSGEDFIKHQILIYPVVNFVAPTPSLLEFGEGLWILDQKIMSWFSEQYFSREEDKFNPLASVIFADLENLPPALIITAEYDPLRDEGEVFGQMLRRAGVEASIVRYRGVLHGFINYYPVLKAARDAINQIAALLVFD
notes: pET-28a(+) in E. coli BL21-CodonPlus(DE3), Ni-NTA purified; 5' primer starts … (MLDMPI)
B2: AFEST (Archaeoglobus fulgidus DSM 4304; V293E) (protein)
chain: B1 chain with V293E
notes: as for B1
B3: AFEST (Archaeoglobus fulgidus DSM 4304; V293G) (protein)
chain: B1 chain with V293G
notes: as for B1
B4: AFEST (Archaeoglobus fulgidus DSM 4304; F287Y/S94G) (protein)
chain: B1 chain with S94G, F287Y
notes: as for B1

Legend:
[1] = substrate: CCCC(=O)Oc1ccc2c(c1)Oc1cc(OC(=O)CCC)ccc1C21OC(=O)c2ccccc21; assay: cells, lysate or membranes; assay type: cell-based, Archaeoglobus fulgidus; settings: bulk reaction; enzyme preparation not told in main text (AFEST displayed on E. coli in the parallel droplet assay)
[2] = substrate: CCCC(=O)Oc1ccc([N+](=O)[O-])cc1; assay: hydrolysis kinetics; assay type: biochemical, Archaeoglobus fulgidus; settings: 37°C
From the text: hydrolysis kinetics on AFEST

Protein | Km [1] [µM] | Km [2] [µM] | kcat [2] [s⁻¹] | kcat/Km [2] [M⁻¹ s⁻¹]
B1 | 240 | 22.47 | 135 | 6.03e+06
B2 | – | 12.13 | 138 | 1.14e+07
B3 | – | 9.74 | 118 | 1.21e+07
B4 | – | 15.42 | 155 | 1e+07
